Measured values reported in US20090215686A1.

Biological target: Met on MDCK (Madin-Darby canine kidney) cells (canine) (UniProt Q75ZY9)
Experiment: cell-based or functional assay

concentration at which agonistic activity is seen (MDCK colony scatter) [nM] | Substance
> 10 | NK1 version of the receptor-binding mutant K1M (E195A:R197A:Y198A) (from UniProt P14210 28-209) (ligand)
100 | NK1 version of the receptor-binding mutant K1N (E159A:S161A:E195A:R197A:Y198A) (from UniProt P14210 28-209) (ligand)
